From US20240124607A1 (Merck Sharp & Dohme, published 2024)

Tests used:
human FcγRIIA R131 [1] = target: T1, human FcγRIIA R131 (human, UniProt P12318 34-218, limits assumed); test: SPR, AB0621 on Protein A chip, 25C, pH 7.4; reference not named
T1 sequence (looked up): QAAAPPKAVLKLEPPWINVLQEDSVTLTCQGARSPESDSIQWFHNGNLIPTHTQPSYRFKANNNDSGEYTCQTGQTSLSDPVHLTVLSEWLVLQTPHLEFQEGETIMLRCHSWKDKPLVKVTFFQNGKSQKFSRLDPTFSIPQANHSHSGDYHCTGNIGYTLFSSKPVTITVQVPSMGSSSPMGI
Protocol: (§1) AB0621 was captured onto a Protein A chip (Cytiva, #29127556). Human FcγRs were titrated over captured AB0621 as 3-fold serial dilutions starting from 300 nM for FcγRI, 1000 nM for FcγRIIA R131 and H131, and 3000 nM for FcγRIIB and FcγRIIIB. Association was monitored for 120 sec and dissociation was monitored for 180 sec. Assays were run at 25° C. at pH 7.4. The surface of the chip was regenerated with 10 mM glycine pH 1.5 for 20 sec at 30 μL/min.

human FcγRI [2] = target: T2, human FcγRI (human, UniProt P12314 16-288, limits assumed); test: as above
T2 sequence (P12314 16-288 limits assumed): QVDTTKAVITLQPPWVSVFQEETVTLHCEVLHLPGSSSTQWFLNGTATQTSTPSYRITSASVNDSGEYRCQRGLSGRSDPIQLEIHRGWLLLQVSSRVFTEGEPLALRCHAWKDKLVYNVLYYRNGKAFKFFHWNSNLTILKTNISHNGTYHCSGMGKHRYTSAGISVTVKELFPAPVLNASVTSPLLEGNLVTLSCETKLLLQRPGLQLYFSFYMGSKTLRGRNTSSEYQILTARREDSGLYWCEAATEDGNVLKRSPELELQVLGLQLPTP
Protocol: as §1

human FcγRIIA H131 [3] = target: T3, human FcγRIIA H131 (human, UniProt P12318 34-218, limits assumed); test: as above
T3 sequence (looked up): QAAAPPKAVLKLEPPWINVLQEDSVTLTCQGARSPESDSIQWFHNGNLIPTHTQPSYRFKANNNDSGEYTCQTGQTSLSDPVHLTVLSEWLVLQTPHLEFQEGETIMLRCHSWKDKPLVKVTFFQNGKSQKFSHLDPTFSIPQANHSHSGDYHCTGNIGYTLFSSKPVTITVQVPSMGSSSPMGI
Protocol: as §1

human FcγRIIB [4] = target: T4, human FcγRIIB (human, UniProt P31994 43-217, limits assumed); test: as above
T4 sequence (looked up): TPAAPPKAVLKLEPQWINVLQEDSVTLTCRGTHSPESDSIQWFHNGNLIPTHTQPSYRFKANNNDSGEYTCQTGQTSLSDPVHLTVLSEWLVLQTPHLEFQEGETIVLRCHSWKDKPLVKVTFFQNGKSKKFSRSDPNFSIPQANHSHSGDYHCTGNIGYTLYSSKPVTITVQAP
Protocol: as §1

Cyno FcRn = Cyno FcRn (cynomolgus monkey, UniProt Q8SPV9 24-297; Q8SPW0 21-119, limits assumed); test: SPR, anti-kappa capture, 25C, pH 6.0; pH 6.0
Sequence of Cyno FcRn (Q8SPV9 24-297 limits assumed, chain 1 of 2): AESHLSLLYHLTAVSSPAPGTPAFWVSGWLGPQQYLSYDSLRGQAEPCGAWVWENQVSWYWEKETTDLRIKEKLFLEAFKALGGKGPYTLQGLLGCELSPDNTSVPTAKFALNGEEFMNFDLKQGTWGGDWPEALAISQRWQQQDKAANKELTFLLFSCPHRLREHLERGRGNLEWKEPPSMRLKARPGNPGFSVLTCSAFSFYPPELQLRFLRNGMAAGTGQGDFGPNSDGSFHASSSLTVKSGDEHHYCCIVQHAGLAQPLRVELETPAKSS
Sequence of Cyno FcRn (Q8SPW0 21-119 limits assumed, chain 2 of 2): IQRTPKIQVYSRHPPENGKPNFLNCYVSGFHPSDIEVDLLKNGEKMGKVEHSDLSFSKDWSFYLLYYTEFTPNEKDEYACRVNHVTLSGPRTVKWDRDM
Protocol: (§2) Anti-kappa light chain antibody was immobilized onto a CM5 chip following a standard amine-coupling protocol. AB0621 was captured onto the chip and human or cynomolgus FcRn was titrated from 2000 nM as 2-fold serial dilutions. Association was monitored for 120 sec and dissociation was monitored for 180 sec. Assays were run at 25° C. at both pH 7.4 and pH 6.0. The surface of the chip was regenerated with two pulses of 10 mM glycine pH 1.5 for 20 sec at 30 μL/min followed by 10 mM NaOH for 20 sec at 30 μL/min.

Human FcRn = Human FcRn (human, UniProt P55899 24-297; P61769 21-119, limits assumed); test: SPR, anti-kappa capture, 25C, pH 6.0; pH 6.0
Sequence of Human FcRn (P55899 24-297 limits assumed, chain 1 of 2): as the sequence (Q8SPV9 24-297 limits assumed, chain 1 of 2) above, with D39N, Q44E, S99G, G189S, N190S, M217L, T269S counted along it
Sequence of Human FcRn (P61769 21-119 limits assumed, chain 2 of 2): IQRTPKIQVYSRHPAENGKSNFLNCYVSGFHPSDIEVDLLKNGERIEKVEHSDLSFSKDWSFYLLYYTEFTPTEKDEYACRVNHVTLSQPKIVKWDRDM
Protocol: as §2

Human CEACAM8 = target: T5, Human CEACAM8 (human, UniProt P31997 35-320, limits assumed); test: SPR, 37C, pH 7.4
T5 sequence (looked up): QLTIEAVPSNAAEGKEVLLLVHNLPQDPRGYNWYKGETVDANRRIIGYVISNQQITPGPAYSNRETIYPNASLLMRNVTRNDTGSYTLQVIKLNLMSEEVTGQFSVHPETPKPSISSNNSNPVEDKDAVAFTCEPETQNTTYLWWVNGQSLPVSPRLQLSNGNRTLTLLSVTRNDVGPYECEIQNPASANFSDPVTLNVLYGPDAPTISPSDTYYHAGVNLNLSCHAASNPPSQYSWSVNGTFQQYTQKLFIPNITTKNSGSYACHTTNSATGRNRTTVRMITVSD

human FcγRIIA R131 [5] = target: T1, human FcγRIIA R131; test: SPR, AB0621 on Protein A chip, 25C, pH 7.4
Protocol: as §1

human FcγRI [6] = target: T2, human FcγRI; test: SPR, AB0621 on Protein A chip, 25C, pH 7.4
Protocol: as §1

human FcγRIIA H131 [7] = target: T3, human FcγRIIA H131; test: SPR, AB0621 on Protein A chip, 25C, pH 7.4
Protocol: as §1

human FcγRIIIB = human FcγRIIIB (human, UniProt O75015 17-200, limits assumed); test: SPR, AB0621 on Protein A chip, 25C, pH 7.4
Sequence of human FcγRIIIB (O75015 17-200 limits assumed): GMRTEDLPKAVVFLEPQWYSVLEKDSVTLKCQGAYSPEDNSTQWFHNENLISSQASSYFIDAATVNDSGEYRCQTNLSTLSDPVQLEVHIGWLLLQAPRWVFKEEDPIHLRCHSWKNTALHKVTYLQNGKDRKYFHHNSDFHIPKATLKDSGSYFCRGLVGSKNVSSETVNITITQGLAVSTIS
Protocol: as §1

human FcγRIIB [8] = target: T4, human FcγRIIB; test: SPR, AB0621 on Protein A chip, 25C, pH 7.4
Protocol: as §1

[9] = target: T6, human CD16A (FcγRIIIA) V158 (human, UniProt P08637 17-208, limits assumed, biotinylated in the assay of Table 21); test: SPR (Biacore), AB0264 captured on a CM5 chip with immobilised human CEACAM5; 2 uM CD16A, then premix of 2 uM CD16A and 2 uM NKG2D-His
T6 construct: also called CD16A (V158/V176)
T6 sequence (P08637 17-208 F176V limits assumed): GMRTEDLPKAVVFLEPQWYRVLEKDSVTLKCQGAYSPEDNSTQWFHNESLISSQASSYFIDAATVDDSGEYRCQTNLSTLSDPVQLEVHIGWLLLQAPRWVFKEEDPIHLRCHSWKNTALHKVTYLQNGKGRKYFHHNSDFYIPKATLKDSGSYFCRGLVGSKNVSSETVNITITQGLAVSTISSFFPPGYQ
Description: This surface was used to first stably capture AB0264 onto the chip surface. […] The ratio of binding signals (which are proportional to MWs) was approximately 5:1:1 which is consistent with a 1:1:1 molar stoichiometry of complex bound on the CEACAM5 surface.

B1: AB0621 F3' CEACAM5 TriNKET (bispecific antibody, human IgG1, kappa)
chain: DIVMTQSPDSLAVSLGERATINCKSSHSLLYGNFQNNYLAWYQQKPGQPPKLLIYWASTRESGVPDRFSGSGSGTDFTLTISSLQAEDVAVYYCQQYYSYPYTFGCGTKLEIKGGGGSGGGGSGGGGSGGGGSQVQLVQSGAEVKKPGASVKVSCKASGYTFTAYTIHWVRQAPGQCLEWMGYINPSSGYTEYNQKFKDRTTLTADTSISTAYMELSRLRSDDTAVYYCTREGGLLWFDYWGQGTLVTVSSGSDKTHTCPPCPAPELLGGPSVFLFPPKPKDTLMISRTPEVTCVVVDVSHEDPEVKFNWYVDGVEVHNAKTKPREEQYNSTYRVVSVLTVLHQDWLNGKEYKCKVSNKALPAPIEKTISKAKGQPREPRVYTLPPCRDELTKNQVSLTCLVKGFYPSDIAVEWESNGQPENNYKTTPPVLVSDGSFTLYSKLTVDKSRWQQGNVFSCSVMHEALHNHYTQKSLSLSPG
heavy: EVQLVESGGGLVKPGGSLRLSCAASGFTFSSYSMNWVRQAPGKGLEWVSSISSSSSYIYYADSVKGRFTISRDNAKNSLYLQMNSLRAEDTAVYYCARGAPIGAAAGWFDPWGQGTLVTVSSASTKGPSVFPLAPSSKSTSGGTAALGCLVKDYFPEPVTVSWNSGALTSGVHTFPAVLQSSGLYSLSSVVTVPSSSLGTQTYICNVNHKPSNTKVDKKVEPKSCDKTHTCPPCPAPELLGGPSVFLFPPKPKDTLMISRTPEVTCVVVDVSHEDPEVKFNWYVDGVEVHNAKTKPREEQYNSTYRVVSVLTVLHQDWLNGKEYKCKVSNKALPAPIEKTISKAKGQPREPQVCTLPPSRDELTENQVSLTCLVKGFYPSDIAVEWESNGQPENNYKTTPPVLDSDGSFFLYSWLTVDKSRWQQGNVFSCSVMHEALHNHYTQKSLSLSPG
light: DIQMTQSPSSVSASVGDRVTITCRASQGISSWLAWYQQKPGKAPKLLIYAASSLQSGVPSRFSGSGSGTDFTLTISSLQPEDFATYYCQQGVSFPRTFGGGTKVEIKRTVAAPSVFIFPPSDEQLKSGTASVVCLLNNFYPREAKVQWKVDNALQSGNSQESVTEQDSKDSTYSLSSTLTLSKADYEKHKVYACEVTHQGLSSPVTKSFNRGEC
B1 was tested, and the KD/KD ref (human FcγRIIA R131 [1]) was 0.68 fold, the KD/KD ref (human FcγRI [2]) was 0.64 fold and the KD/KD ref (human FcγRIIA H131 [3]) was 0.68 fold. For the same binder, the KD/KD ref (human FcγRIIB [4]) was 0.94 fold, the Kd (Cyno FcRn) was 310 nM and the Kd (Human FcRn) was 440 nM. The binding result (Human CEACAM8) was “no binding (tested: up to 600 and 1200 nM)”, the Kd (human FcγRIIA R131 [5]) was 330 nM and the Kd (human FcγRI [6]) was 14 nM. For the same binder, the kon (human FcγRI [6]) was 2.6e+06 M⁻¹ s⁻¹, the Kd (human FcγRIIA H131 [7]) was 600 nM and the binding result (human FcγRIIIB) was “no binding (tested: titrated from 3000 nM)”. It also gave a Kd (human FcγRIIB [8]) of 3300 nM.

B2: AB0264 F3' CEACAM5 TriNKET (bispecific antibody, human IgG1, kappa)
chain: DIVMTQSPDSLAVSLGERATINCKSSHSLLYGNFQNNYLAWYQQKPGQPPKLLIYWASTRESGVPDRFSGSGSGTDFTLTISSLQAEDVAVYYCQQYYSYPYTFGCGTKLEIKGGGGSGGGGSGGGGSGGGGSQVQLVQSGAEVKKPGASVKVSCKASGYTFTAYTIHWVRQAPGQCLEWMGYINPSSGYTEYNQKFKDRTTLTADTSIPTAYMELSRLRSDDTAVYYCTREGGLLWFDYWGQGTLVTVSSGSDKTHTCPPCPAPELLGGPSVFLFPPKPKDTLMISRTPEVTCVVVDVSHEDPEVKFNWYVDGVEVHNAKTKPREEQYNSTYRVVSVLTVLHQDWLNGKEYKCKVSNKALPAPIEKTISKAKGQPREPRVYTLPPCRDELTKNQVSLTCLVKGFYPSDIAVEWESNGQPENNYKTTPPVLVSDGSFTLYSKLTVDKSRWQQGNVFSCSVMHEALHNHYTQKSLSLSPG
heavy: EVQLVESGGGLVKPGGSLRLSCAASGFTFSSYSMNWVRQAPGKGLEWVSSISSSSSYIYYADSVKGRFTISRDNAKNSLYLQMNSLRAEDTAVYYCARGAPIGAAAGWFDPWGQGTLVTVSSASTKGPSVFPLAPSSKSTSGGTAALGCLVKDYFPEPVTVSWNSGALTSGVHTFPAVLQSSGLYSLSSVVTVPSSSLGTQTYICNVNHKPSNTKVDKKVEPKSCDKTHTCPPCPAPELLGGPSVFLFPPKPKDTLMISRTPEVTCVVVDVSHEDPEVKFNWYVDGVEVHNAKTKPREEQYNSTYRVVSVLTVLHQDWLNGKEYKCKVSNKALPAPIEKTISKAKGQPREPQVCTLPPSRDELTENQVSLTCLVKGFYPSDIAVEWESNGQPENNYKTTPPVLDSDGSFFLYSWLTVDKSRWQQGNVFSCSVMHEALHNHYTQKSLSLSPG
light: DIQMTQSPSSVSASVGDRVTITCRASQGISSWLAWYQQKPGKAPKLLIYAASSLQSGVPSRFSGSGSGTDFTLTISSLQPEDFATYYCQQGVSFPRTFGGGTKVEIKRTVAAPSVFIFPPSDEQLKSGTASVVCLLNNFYPREAKVQWKVDNALQSGNSQESVTEQDSKDSTYSLSSTLTLSKADYEKHKVYACEVTHQGLSSPVTKSFNRGEC
B2: binds [9].
